Assay results as given in publication PMC11772769 (2024).
Where a chain is given by its changes, count along the chain named. Where no end group is shown, it is not given here. The star is where a group is joined. 5FAM = O=C1OC2(c3ccc(O)cc3Oc3cc(O)ccc32)c2ccc(C(=O)*)cc21

How the values were obtained:
Experiment in all cases: FP
MBP-SNX17 D467X = target: T1, MBP-SNX17 D467X (UniProt Q15036 1-466)
T1 chain: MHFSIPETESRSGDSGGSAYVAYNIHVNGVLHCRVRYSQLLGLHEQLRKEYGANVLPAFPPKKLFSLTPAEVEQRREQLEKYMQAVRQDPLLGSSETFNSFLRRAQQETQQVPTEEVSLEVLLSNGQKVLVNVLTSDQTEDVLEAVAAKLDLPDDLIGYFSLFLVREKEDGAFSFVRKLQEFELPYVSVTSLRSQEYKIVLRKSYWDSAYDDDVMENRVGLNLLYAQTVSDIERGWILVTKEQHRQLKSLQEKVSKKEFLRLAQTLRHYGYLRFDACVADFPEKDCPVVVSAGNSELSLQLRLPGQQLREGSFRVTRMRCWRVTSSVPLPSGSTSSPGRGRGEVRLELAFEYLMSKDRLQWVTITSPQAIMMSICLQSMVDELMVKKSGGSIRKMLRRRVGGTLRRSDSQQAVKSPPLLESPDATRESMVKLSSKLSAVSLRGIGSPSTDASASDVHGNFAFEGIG

MBP-SNX17 L470G = target: T2, MBP-SNX17 L470G (UniProt Q15036 1-470, L470G)
T2 sequence: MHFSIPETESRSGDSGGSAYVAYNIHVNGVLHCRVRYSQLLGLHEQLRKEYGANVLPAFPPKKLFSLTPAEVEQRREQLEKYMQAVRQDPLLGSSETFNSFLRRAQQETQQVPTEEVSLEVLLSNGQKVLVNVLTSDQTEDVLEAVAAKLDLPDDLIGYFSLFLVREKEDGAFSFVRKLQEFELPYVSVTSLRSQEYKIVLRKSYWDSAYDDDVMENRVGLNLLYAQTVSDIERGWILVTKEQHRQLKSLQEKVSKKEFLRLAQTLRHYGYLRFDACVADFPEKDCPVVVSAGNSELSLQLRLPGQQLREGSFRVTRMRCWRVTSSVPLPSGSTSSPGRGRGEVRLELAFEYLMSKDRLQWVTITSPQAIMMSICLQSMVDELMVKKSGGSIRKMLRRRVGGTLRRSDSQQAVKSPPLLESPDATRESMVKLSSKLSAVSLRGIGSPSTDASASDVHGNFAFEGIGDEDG

[1] = target: T3, MBP-SNX17 (full-length, wild-type) (UniProt Q15036 1-470)
T3 chain: T2 sequence with G470L

Binder | Kd (MBP-SNX17 D467X) | Kd (MBP-SNX17 L470G) | Kd [1]
5FAM-KLITYDNPAYEGID [Peptide L2_(14mer)] | 3.2 µM | 1100 nM | 1100 nM
5FAM-MNVEIGNPTYKMYE [Peptide LRP1_(14mer)] | 8.5 µM | 2800 nM | 3000 nM
